Assay [1] addresses 6xHis-tagged RcsF (E. coli) (UniProt P69411). As to the kind of experiment: BLI. (In BLI a coated tip is dipped into the sample, and binding shifts an interference pattern.)
In assay [2] the target is Untagged BamA (biolayer interferometry) (E. coli), P0A940. As to the kind of experiment: BLI. The conditions noted are these: remark: other sources report otherwise.
The target of assay [3] is BamABCDE holocomplex (BAM) (E. coli, UniProt P0A940;P77774;P0A903;P0AC02;P0A937). As to the kind of experiment: native gel or EMSA.
Chain of BamABCDE holocomplex (BAM) (P77774 20-392, chain 2 of 4): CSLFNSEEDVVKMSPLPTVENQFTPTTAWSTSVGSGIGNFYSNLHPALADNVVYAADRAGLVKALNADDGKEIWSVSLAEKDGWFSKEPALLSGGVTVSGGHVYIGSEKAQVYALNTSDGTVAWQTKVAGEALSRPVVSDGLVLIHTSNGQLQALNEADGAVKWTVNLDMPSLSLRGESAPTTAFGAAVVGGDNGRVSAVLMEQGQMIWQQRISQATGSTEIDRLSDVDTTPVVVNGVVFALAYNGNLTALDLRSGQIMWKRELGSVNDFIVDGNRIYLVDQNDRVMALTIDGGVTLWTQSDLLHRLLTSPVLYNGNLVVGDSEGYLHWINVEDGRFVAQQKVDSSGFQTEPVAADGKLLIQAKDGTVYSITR
Chain of BamABCDE holocomplex (BAM) (P0A903 25-344, chain 3 of 4): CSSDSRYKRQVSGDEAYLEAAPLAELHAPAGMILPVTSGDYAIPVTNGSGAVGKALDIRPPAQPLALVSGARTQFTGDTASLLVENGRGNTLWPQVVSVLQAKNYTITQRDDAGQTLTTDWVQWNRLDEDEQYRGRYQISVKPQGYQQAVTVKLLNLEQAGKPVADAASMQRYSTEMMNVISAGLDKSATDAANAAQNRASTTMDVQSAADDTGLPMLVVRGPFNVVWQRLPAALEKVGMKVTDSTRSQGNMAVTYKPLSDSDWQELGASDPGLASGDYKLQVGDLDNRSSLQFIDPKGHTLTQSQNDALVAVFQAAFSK
Chain of BamABCDE holocomplex (BAM) (P0AC02 20-245, chain 4 of 4): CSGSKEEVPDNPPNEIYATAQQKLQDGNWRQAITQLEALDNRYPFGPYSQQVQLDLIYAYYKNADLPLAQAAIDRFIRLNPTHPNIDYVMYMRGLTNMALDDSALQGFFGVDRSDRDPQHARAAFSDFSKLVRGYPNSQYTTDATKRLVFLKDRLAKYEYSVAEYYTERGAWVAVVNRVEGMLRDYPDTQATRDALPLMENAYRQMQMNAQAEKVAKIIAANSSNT
Chain of BamABCDE holocomplex (BAM) (P0A937 20-113, chain 5 of 4): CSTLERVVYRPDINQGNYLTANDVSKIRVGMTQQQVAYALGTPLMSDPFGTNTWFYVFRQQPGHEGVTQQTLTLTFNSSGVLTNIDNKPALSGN
The target in a further assay is BamABDE complex (E. coli, UniProt P0A940;P77774;P0AC02;P0A937). The assay is described as follows: native gel or EMSA.
Chain of BamABDE complex (P77774 20-392, chain 2 of 3): as the sequence (P77774 20-392, chain 2 of 4) above
Chain of BamABDE complex (P0AC02 20-245, chain 3 of 3): as the sequence (P0AC02 20-245, chain 4 of 4) above
Chain of BamABDE complex (P0A937 20-113, chain 4 of 3): as the sequence (P0A937 20-113, chain 5 of 4) above
The target of the next assay is BamACDE complex (E. coli, UniProt P0A940;P0A903;P0AC02;P0A937). The assay is described as follows: native gel or EMSA. For orientation: Mobility shift assays separate free from complexed probe on a gel.
Chain of BamACDE complex (P0A903 25-344, chain 2 of 3): as the sequence (P0A903 25-344, chain 3 of 4) above
Chain of BamACDE complex (P0AC02 20-245, chain 3 of 3): as the sequence (P0AC02 20-245, chain 4 of 4) above
Chain of BamACDE complex (P0A937 20-113, chain 4 of 3): as the sequence (P0A937 20-113, chain 5 of 4) above

For “Untagged BamA (biolayer interferometry) (from UniProt P0A940 21-810) (natural protein; other documents disagree on this pair)”, in assay [1], the dissociation constant Kd (usually the free concentration of one partner at which half of the binding sites on the other are occupied at equilibrium, for simple one-to-one binding) worked out at 420 nM.

B1: 6xHis-tagged RcsF, P69411 16-134 (natural protein)
chain: CSMLSRSPVEPVQSTAPQPKAEPAKPKAPRATPVRIYTNAEELVGKPFRDLGEVSGDSCQASNQDSPPSIPTARKRMQINASKMKANAVLLHSCEVTSGTPGCYRQAVCIGSALNITAK
modifications: here or on the partner: biotin (EZ-Link NHS-PEG4-biotin) where BamA was immobilised on streptavidin tips
Regarding B1, in assay [2], the Kd amounted to 350 nM.

B2: RcsF (overexpressed from pSC216) (natural protein)
chain: CSMLSRSPVEPVQSTAPQPKAEPAKPKAPRATPVRIYTNAEELVGKPFRDLGEVSGDSCQASNQDSPPSIPTARKRMQINASKMKANAVLLHSCEVTSGTPGCYRQAVCIGSALNITAK
modifications: lipid anchor (outer membrane lipoprotein)
Turning to B2, the binding result (in assay [3]; with BamABDE complex; with BamACDE complex) was “binds” throughout.
